Source: article PMC10891947, “Gene Expression of Ethanol and Acetate Metabolic Pathways in the Acinetobacter baumannii EmaSR Regulon” (Microorganisms, 2024)
“And” between values parts separate entries of the source, which are not always exact repeats. Equal entries are not always repeated.

Experiments:
purified protein [1] = substrate: CC(C)(COP(=O)(O)OP(=O)(O)OC[C@H]1O[C@@H](n2cnc3c(N)ncnc32)[C@H](O)[C@@H]1OP(=O)(O)O)[C@@H](O)C(=O)NCCC(=O)NCCSC(=O)CCC(=O)O; experiment: purified protein; format: biochemical, Acinetobacter baumannii; conditions: pH 8.0 potassium phosphate buffer, co-substrate acetate, one experiment
purified protein [2] = substrate: CC(=O)O; experiment: purified protein; conditions: pH 8.0 potassium phosphate buffer, co-substrate succinyl-CoA, one experiment

B1: DJ41_2796 (Acinetobacter baumannii ATCC 19606 = CIP 70.34 = JCM 6841) (protein)
chain: MSLSRIRLASLHDKVISAEQAAQFIENGMTVGMSGFTRAGEAKAVPQALVELAKKNPLKITLITGASLGNDLDKQLTEAGVLSRRMPFQVDNTLRRAINNGEVMFIDQHLSETVEQMRNQQLKRPDVAVIEAIAITEDGGIIPTTSVGNSASFAIFAEKVIVEINTSLSESFEGLHDIYIPTYRPTRTPIPLTKVDERIGTTAIQIDPSRIVGIVFNDTHDSPSTVTPPDDETQGIANHLIAFFEKEVAEGRLPKNLGPLQAGIGSIANAVLTGLKDSNFEDLIMYSEVLQDCTFELIDAGKMKFASGSSITLSAKCGEKVFGNIEAYKDKLVLRPQEISNHPELVRRLGIIGINTALEFDIYGNVNSTHVCGTKMMNGIGGSGDFARNAHLAIFVTKSIAKGGDISSIVPMVSHVDHSEHDVDILVTEQGLADLRGLAPRERARAIIDNCVHPLYRDALNDYFDRACAKGGHTPHLLREALSWHANFEETGQMLQPTPVAKSA
- Km (purified protein [1]): 0.3418 mM
- Vmax (purified protein [1]): 0.035 µmol/min
- kcat (purified protein [1]): 6.99 s⁻¹
- kcat/Km (purified protein [1]): 20500 M⁻¹ s⁻¹
- Km (purified protein [2]): 14.74 mM and 39 mM
- Vmax (purified protein [2]): 0.0335 µmol/min and 0.0415 µmol/min
- kcat (purified protein [2]): 6.7 s⁻¹ and 8.31 s⁻¹
- kcat/Km (purified protein [2]): 455 M⁻¹ s⁻¹ and 213 M⁻¹ s⁻¹
